These are literature values, as cited in publication PMC7514057.

This series has as its target ArkA peptide (Ark1p) Lys(3) to Lys(-8) (Saccharomyces cerevisiae) (UniProt P53974).

Turning to Abp1p SH3 (from UniProt P15891), the Kd was 1.7 µM.

One may read the Kd as the equilibrium constant for the complex coming apart.
